In the nanobody polyreactivity screen of Harvey et al. (2022):

Assay: yeast display, Sf9 membrane polyspecificity reagent, FACS + sequencing; frameworks hold sequencing errors
Method in brief: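 Polyreactivity labels are assigned by the sorting gate from which each nanobody was recovered. The gates were low and high (top ~1%), set on anti-HA fluorescence for expression and streptavidin fluorescence for reagent binding. Before sorting, galactose-induced (36–48 hours) yeast display cells were stained for 1 hour at 4 °C with 10% biotinylated, detergent-solubilized Sf9 membrane reagent.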

Sequence: QVQLVESGGGLVQAGGSLRLSCAASGNILWFNAMGWYRQAPGKERELVASITSSGGRTYYADSVKGRFTISRDNAKNTVYLQMNSLKPEETAVYYCAAEYYYGWTYSGGLGFLGYNYWGQGTQVTVSS
- polyreactivity (PSR sort gate): low polyreactivity

Sequence: QVQLVESGGGLVQAGGSLRLSCAASGSTLYRYAMGWYRQAPGKERELVAAISSAGSTHYADSVKGRFTISRDNAKNNVYLQMKSLKPEDTAVYYCNAKGYLHRSRYDYWGQGTQVTVSS
- polyreactivity (PSR sort gate): high polyreactivity

Sequence: QVQLVESGGRLVQAGGSLRLSCAASGITFIDYAMGWYRQAPGKERELVAAIRYSAGSTYYADSVKGRFTISRDNAKNTVYLQMNSLKPEDTAVYYCARTTPSGRQYRRYDYWGQGTQVTVSS
- polyreactivity (PSR sort gate): low polyreactivity

Sequence: QVHLVESGGGLVQAGGSLRLSCAASGGTFWWYTMGWYRQAPGKERELVATITRGGSTNYADSVKGRFTISRDNAKNTVYLQMNSLKPEDTAVYYCSARWYVYVHFERYYWGQGTQVTVSS
- polyreactivity (PSR sort gate): high polyreactivity

Sequence: QVQLVESVGGLVQAGGSLRLSCAASGFIFWDYAMGWYRQAPGKERELVAAISDSGGDTYYADSVKGRFTISRDIAKNTVYLQMNSLKPEDTAVYYCAADVELWVFRGQQYDYWGQGTQVTVSS
- polyreactivity (PSR sort gate): low polyreactivity

Sequence: QVQLVESGGVLVQAGASLRLSCAASVFTFRRYAMGWYRQAPGKERELVAAITRDDSTNYADSVKGRFTISRDNAKNTVYLQMNSLKPEDTAVYYCAARLWYPYYYWGQGTQVTVSS
- polyreactivity (PSR sort gate): high polyreactivity

Sequence: QDQLVESGGGLVQAGGNLRLSCAASGRIYRYYAMGWYRQAPGKERELVATITLNTVSTYYADSVKGRFTISRDNAKNTVYVQKNSRTPEDTAVYYCAAGAVRFGAGYSRYWEDDYWGQGTQVTVSS
- polyreactivity (PSR sort gate): high polyreactivity

Sequence: QVQLVESGGGLVQAGGSLRLSSAASGLTFTYYVMGWYRQAPGKERELVAAITVSGGSTYYADSVKGRFTISRDNAKNTVYLQMNSLKPEDTAVYYCAADAYSGYSDYYWGQGTQVTVSS
- polyreactivity (PSR sort gate): low polyreactivity

Sequence: QVQLQESASGLVQAGGSLRLSCAASGAIFPAYLMGWYRQAPGKERELVAGISYGSITYCADSVKGRFNISRDNAKNTVYLQMNSLKPEDTAVYYCAKDIGVRRRDYEDYEYWGQGTQVTVSS
- polyreactivity (PSR sort gate): low polyreactivity

Sequence: QVQLVESGGGLVQAGGSLRLSCAASGSIFSKYAMGWYRQAPGKERELVAAITFRSGSTYYADSVKGRFTISRDNAKNTVYLQMNSLKPEDTAVYYCAADEYYQVSAYDYWGQGTQVTVSS
- polyreactivity (PSR sort gate): low polyreactivity

Sequence: QVQLVESGGCLVQAGGSLRLSCAASGIIFYTYAMGWYRQAPGKEREFVAGIRWSGSSTYYADSVKGRFTISRDNAKNTVYLQMNSLKPEDTAVYYCATGQPYGPLYSLGYGYWGQGTQVTVSS
- polyreactivity (PSR sort gate): high polyreactivity

Sequence: QVQLVESGGGLVQAGGSLRLSCAASGRILTTNAMGWYRQAPGKERELVAAITRSGGRTYYADSVKGRFTISRDNAKNTVYLQMNSLKPEDTAVYYCAAATSPGIYDYWGQGTQVTVSS
- polyreactivity (PSR sort gate): high polyreactivity

Sequence: QVQLVESGGGLVQAGGSLRLSCAASGSTFYVYAIGWYRHAPGKERELVADITYSDGGTFYADSVKGRFTISRDNAKTTVYLQMNSLKPEDTAGYYCATSYLWNYRGDIFDYWGQGTQVTVSS
- polyreactivity (PSR sort gate): high polyreactivity

Sequence: QDQLVESGGGLVQAGGSLRLSCAASGRIFVYYVMGWYRQAPGKERELVAAITYSGGSTYYADSVKVRFTISRDNAKNTVYLQMNSLKPEDTAVYACNKVDAFGIVRLYYWGQGTQVTVSS
- polyreactivity (PSR sort gate): low polyreactivity

Sequence: QVQLVESGGGLVQAGGSLRLSCAASGSIFGSYAMGWYRQAPGKERELVAAISYRGGRTYYADSVKGRFTISRDNAKNSVYLQMNSLKPEDTAVYYCNARARNSPPYDYWGQGTQVTVSS
- polyreactivity (PSR sort gate): high polyreactivity

Sequence: QVQLVESGGGLVQAGGSLRLSCAASGSIFNSNAMGWYRPAPGKEREFVATITQTGSSTYYADSVKGRFTISRDNAKNTVYLQMNSLKPEETAVYYCAVDWILYEYEDDFWYRYDYWGQGTQVTVSS
- polyreactivity (PSR sort gate): low polyreactivity

Sequence: QVQLVESGGRLVQAGGSLRLSCAASGTFDLSAMGWYSQAPGKERELVAAITYRGDTTYYADSVKGRFTISRDNAKNTVYLQMNSMKPEDTAVYYCAAEWYYQFSSWYDYWGQGSQVTVSS
- polyreactivity (PSR sort gate): high polyreactivity

Sequence: QVQLVESGGGLVQAGGSLSLSCAASGSTYLDYTMGWYIQAPGKERELVAVISYRAGSTYYADSVKGRFTISRDNAKNTVYLLMHSLKPEDTAVYYCNADYYNYWRRRRYVWYESWGQGTQVTVSS
- polyreactivity (PSR sort gate): low polyreactivity

Sequence: QVQLVESGGGLVQAGGSLRLSCAASGSIFHTYLMGWYRQAPGKERELVASSTRSGGSTYYADSVKGRFTISRDNAKNTVYLQMNSLKPEDTAVYYCAATYRTANHRYYYWGQGTQVTVSS
- polyreactivity (PSR sort gate): high polyreactivity

Sequence: QVQLEESVGGLVQAGGSLRLSCAASGRTFGRYAMGWYRQAPGKERELVAGISRSGDSTHYADSVKGRFTISRDNAKKTVYLQMNSLKPEDTAVYYCNKETPTIGARKYEDWGQGTQVTVSS
- polyreactivity (PSR sort gate): low polyreactivity

Sequence: QVQLVESGGGLVQAGGSLRLSCAASGYTFRTNVMGWYRQAPGKERELVAAISSDGSTNYADSVKGRFTISRDNAKNTVYLQMNSLKPEDTAVYYCAAPWTQILDYWGQGTQVTVSS
- polyreactivity (PSR sort gate): low polyreactivity

Sequence: QVQLVESGGGLVQAGGSLLLSCAASGIIFGTNAMGWYRQAPGKERELVAGITSSGDSTYYADSVKGRFTISRDNAKNTVYLQMNSLKPEDTAVYYCAREIRTREFDSWGQGTQVTVSS
- polyreactivity (PSR sort gate): low polyreactivity

Sequence: QVQLVESGGGLVQAGGSLRLSCAASGITFGYYAMGWYRQAPGKERELVATLTDGGGTKYADSVKGRFTISRDNAMNTVYLQMDSLKPEDTAVYYCAAGLRHVYATEYDYWGQGTQVTVSS
- polyreactivity (PSR sort gate): low polyreactivity

Sequence: QVQLVESGGGLVQAGGSLRLSCAASGSIFPGYAMGWYRQAPGKERELVATIRWSSGSRTNYADSVKGRFTISRDNAKNTVYLQMNSLKPEDTAVYYCAAGSRRYKYDYWGQGTQVTVSS
- polyreactivity (PSR sort gate): high polyreactivity

Sequence: QVQLVESGGGLVQAGGSLRLSCAASGRTFGFYAMGWYRQAPGKERELVASITWRRGRTYYADSVKGRFTISRDNAKNTLYLQMNSLNPEDTAVYYCAAVTFSYDGYDYWGQGTQVTVSS
- polyreactivity (PSR sort gate): low polyreactivity

Sequence: QVQLVESGGGLVQAGGSLRLSCAASGSTFLQNAMGWYRQAPGKEREFVAAISYTGANTYYADSVKGRFTISRDNAKNTVYLQMNSLKPEDTAVYYCAAYARGVRRYRRYDYWGQGTQVTVSS
- polyreactivity (PSR sort gate): high polyreactivity

Sequence: QVQLVESGGGLVQAGGSLRLSCAASGRIFYQNAMGWYRQAPGKARELVADSASGGSTYYADSVKGRFTISRDNAKNTVYLQMNSLKPEDPAVYYCATAVLYGDGWYYYWGQGTQVTVSS
- polyreactivity (PSR sort gate): low polyreactivity

Sequence: QVQLVESGGGLVQAGGSLSLSCAASGRTYYYNAMGWYRQAPGKERELVAAITFSGGTTSYADSEKGRFTISRDNAKNTVYLQMNRLKPEDTEVYYCAARGYWGQGTQVTVSW
- polyreactivity (PSR sort gate): high polyreactivity

Sequence: QVQLVESGGGLVQAGGSLRLSCAASGSIFRVYAMGWYRQAPGKERELVAAISSSGVRTSYADSVKGRFTISRDNAKNTVYLQMNSLKPEDTAVYYCNAAYGRRYDYWGQGTQVTVSS
- polyreactivity (PSR sort gate): high polyreactivity

Sequence: QVQLVESGGGLVQAGGSLRLSCAASGRIFYAYAMGWYRQAPGKEREFVAAISKRGGSTYYADSVKGRFTISRDNAKNTVYFQMNSLKPEDTAVYYCAADHEAIVRYDYWGQGTQVTVSS
- polyreactivity (PSR sort gate): low polyreactivity

Sequence: QVQLVESGGGLVQAGGSLRLSCAASGIFVYYAMGWYRQSPGKERELVAAISSSGGSTYYADSVKGRFTISRDNAKNTVYLQMNSLKREDTAVYYCNTLAYPSDRFEYWGQGTQVTVSS
- polyreactivity (PSR sort gate): high polyreactivity

Sequence: QVQLVESGGGLVQAGGSLRLSCAASVGTFSPNTMGWYRQAPGKERELVAAISSSGSTSYADSVKGRFTISRDNAKNTVYLQMNSLKPEDTAGYFCNADDTISYYASGFDNYDYWGQGTQVTVSS
- polyreactivity (PSR sort gate): low polyreactivity

Sequence: QVQLVESGGGLVQAGGSLRLSCAASGRIFKLYAMGWYRQAPGKERELVATIRYSGGSTYYADSVKGRFTISRDNAKNSVYLHMNSLKPEDTAVYYCNYVSRRQYFEYDYWGQGTQVTVSS
- polyreactivity (PSR sort gate): low polyreactivity

Sequence: QVQLVESGGGLVQEGGSLRLSCAASGSILGRYAMGWYRQAPGKERELVAAITSSGGRTYYADSVKGRFTISRDNAKNTVYLQMNSLKREDTAVYYCNAVSWWYGYDYWGQGTQVSVSS
- polyreactivity (PSR sort gate): high polyreactivity

Sequence: QVQLEDSGGGLVQAGGSLRLSCAASGSIFRRNFMGWNRQAPGKERELVAAISWSGDRTYYADSVKGRFTISRDNAKNTVYLQMNSLKPEDTAVYYCNAVYWPYRYDYWGQGTQVTVSS
- polyreactivity (PSR sort gate): high polyreactivity

Sequence: QVQLVESGGGLVQAGGSLRLSCAASGSIFIYYAMGWYRQAPGKEREMVADITFSAGTNTYYADSVKGRFTISRDNAKNTVYLQKNSLKPEDTAVYYCNADRGFIGSITEYDYWGQGTQVTVSS
- polyreactivity (PSR sort gate): low polyreactivity

Sequence: QVQLVESGGGLVQAGGSLRLSCAASGSIFDGNDMGWYRQAPGKEREKVAAITIGDASRFYADSVKGRFTISRDNAKNTVYFQMNRLKPEDTAVYYCAADRPGLEDDPIYDYWGQGTQVTVSS
- polyreactivity (PSR sort gate): low polyreactivity

Sequence: QVQLVESGGGLVQAGGSLRLSCAASGIIFYYYAMGWYSPAPGKERELVAAISSGGSTYYADSVKGRFTISRDNAKNTVYLQMNSLKPEDTAVYYCAADPLYTIDIEYSTYGDFDYWGQGTQVTVSS
- polyreactivity (PSR sort gate): low polyreactivity

Sequence: QVQLVESGGGLVQAGGSLRLSCAASGLIFSRYAMGWYRQGPGKERELVAASSGGGGSTYYADSVKGRFTISRDNAKNTVYLQMNSLKPEDTAVYYSARKYTRKIPASDYWGQGTQVTVSS
- polyreactivity (PSR sort gate): high polyreactivity

Sequence: QVQLVESGGGLVQAGGSLRLSCAASGYTFFYAMAWYRQAPGKERELVASITSAASTTYADSVKGRFSISRDNAKNTVYLQMNSLKPEDTAVYYCAASHSWWFYPGYYYWGQGTQVTVSS
- polyreactivity (PSR sort gate): high polyreactivity

Sequence: QVQHVESGGGLVQAGVSLRLSCAATGRIFGRYVMGWYRQAPGKETELVARIRRNVGSTYYADSVKGRFTISRDNAKYPVYLQMNSLKPEDTAVYYCAAESYDTWRRYESWGQGTQVTVSS
- polyreactivity (PSR sort gate): high polyreactivity

Sequence: QVQLVESGGGLVQAGGSLRLSCAASGITFGRNTMGWYRQAPGKERELVAAIDSGGNTYADSVKGRFTISRDNAKNTVYLLMNSLKPDDTAVYYCAVDGGEFSSYVYWGQGTQVTVSS
- polyreactivity (PSR sort gate): low polyreactivity

Sequence: QVQLVESGGGLVQAGGSLRLSCAASGYTFRYNTLGGYSQAPGKEREFVAAISSGVGNTYFAVSVKGRFTISRDNAKNTVYLQMNSLKPEDTAVYYCNADYKSSYYWYLWYNYWGQGTQVTVSS
- polyreactivity (PSR sort gate): low polyreactivity
